B1: MacroGreen (Af1521-c007), Af1521 K35E,G42E,I144R,Y145R fused to GFP (other, Archaeoglobus fulgidus, UniProt O28751 1-192, looked up)
chain: MEVLFEAKVGDITLKLAQGDITQYPAKAIVNAANERLEHGGEVAYAIAKACAGDAGLYTEISKKAMREQFGRDYIDHGEVVVTPAMNLEERGIKYVFHTVGPICSGMWSEELKEKLYKAFLGPLEKAEEMGVESIAFPAVSAGRRGCDLEKVVETFLEAVKNFKGSAVKEVALVIYDRKSAEVALKVFERSL
notes: Archaeoglobus fulgidus macrodomain protein Af1521, full length, with K35E, G42E, I144R, Y145R; Synthetic codon-optimised cDNA in a pNIC28 derived vector; also called GFP-fusion quadruple mutant; source: E. coli BL21(DE3)T1R pRARE2, purified (IMAC, SEC); not shown: eGFP, C-terminal, kept

Key:
[1] = target: B1; experiment: SPR; MacroGreen covalently immobilised, auto-MARylated PARP10 catalytic domain flowed over; apparent KD from the kinetics of binding and unbinding; conditions: both partners purified
[2] = target: T1, PARylated PARP1 (auto-modified catalytic domain construct) (UniProt P09874 662-1011, auto-poly-ADP-ribosylated (PARylated) predominantly on carboxylic acid side chains; sites not given); experiment: far-Western, overlay or dot blot; overlay in multiwell plates: MAR- or PARylated protein adsorbed to protein binding 96-well plates (MaxiSorp), blocked with 1% BSA, overlaid with the macrodomain-GFP fusion (1 µM in Fig. 2) in TBST pH 7.5 for 5 min at room temperature, washed, GFP fluorescence read; conditions: both partners purified
T1 construct: PARP1 catalytic domain construct, PARP1 662-1011; also called PARP1 662-1011; source: auto-modified with 1 mM NAD+
T1 sequence (P09874 662-1011): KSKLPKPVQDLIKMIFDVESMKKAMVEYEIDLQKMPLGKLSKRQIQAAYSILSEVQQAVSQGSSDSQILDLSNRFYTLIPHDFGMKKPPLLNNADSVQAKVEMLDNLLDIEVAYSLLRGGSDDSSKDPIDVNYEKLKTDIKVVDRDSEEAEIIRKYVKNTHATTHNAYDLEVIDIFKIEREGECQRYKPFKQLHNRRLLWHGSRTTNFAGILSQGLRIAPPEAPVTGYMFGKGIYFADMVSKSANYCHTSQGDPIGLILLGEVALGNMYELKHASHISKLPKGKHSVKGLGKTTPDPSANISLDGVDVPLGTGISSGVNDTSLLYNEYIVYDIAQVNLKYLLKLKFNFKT

Kd [1]	stoichiometry N [1]	binding result [2]	Binder
30 nM	1	–	auto-MARylated PARP10 catalytic domain (domain or fragment, UniProt Q53GL7 819-1007, looked up, auto-mono-ADP-ribosylated (MARylated) on glutamic and aspartic acid, serine, lysine and arginine side chains; sites not given, PARP10 catalytic domain, construct PARP10 819-1007; also called PARP10 819-1007; source: auto-modified with NAD+) NLERLAENTGEFQEVVRAFYDTLDAARSSIRVVRVERVSHPLLQQQYELYRERLLQRCERRPVEQVLYHGTTAPAVPDICAHGFNRSFCGRNATVYGKGVYFARRASLSVQDRYSPPNADGHKAVFVARVLTGDYGQGRRGLRAPPLRGPGHVLLRYDSAVDCICQPSIFVIFHDTQALPTHLITCEHV
–	–	binds	Af1521-c001, wild type Af1521 fused to GFP (other, Archaeoglobus fulgidus, UniProt O28751 1-192, looked up, Archaeoglobus fulgidus macrodomain protein Af1521, full length, wild type; pNIC28 derived vector; also called Af1521-GFP; wild type Af1521-GFP fusion; source: E. coli BL21(DE3)T1R pRARE2, purified (IMAC, SEC); not shown: eGFP, C-terminal, kept) MEVLFEAKVGDITLKLAQGDITQYPAKAIVNAANKRLEHGGGVAYAIAKACAGDAGLYTEISKKAMREQFGRDYIDHGEVVVTPAMNLEERGIKYVFHTVGPICSGMWSEELKEKLYKAFLGPLEKAEEMGVESIAFPAVSAGIYGCDLEKVVETFLEAVKNFKGSAVKEVALVIYDRKSAEVALKVFERSL
–	–	binds	B1

Reference: article PMC8319303, “MacroGreen, a simple tool for detection of ADP-ribosylated proteins” (Communications Biology, 2021)
